Publication PMC12014896 (2025)

B1: COVIC-93 (protein)
chain: MSSSSWLLLSLVAVTAAQSTIEEQVKTFLDKFNHEAEDLFYQCSLASWNYNTNITEENVQNMNNACDKWSAFLCEQSTLAQMYPLQEIQDLTVKLQLQALQQNGSCVLSEDKSKRLNTILNTMSTIYCTGKVCNPDNPQECLLLEPGLNEIMANSLDYNERLWAWESWRSEVGKQLRPLYEEYVVLKNEMARANHYEDYGDYWRGDYEVNGVDGYDYSRGQLIEDVEHTFEEIKPLYEHLHAYVRAKLMNAYPSYISPTGPLPAHLLGDMWGRFWTNLYSLTVPFGQKPNIDVTDAMVDQAWDAQRIFKEAEKFFVSVGLPNMTQGFWENSMLTDPGNGQKVCCYPTAWDLGKGDFRILMCTKVTMDDFLTAHHEMGHIQYDMAYAAQPFLLRNGANEGFHEAVGEIMSLSAATPKHLKSIGLLSPDFQEDNETEINFLLKQALTIVGTLPFTYMLEKWRWMVFKGEIPKDQWMKKWWEMKREIVGVVEPVPHDETYMDPASLFHVSNDYSFIRYYTRTLYQFQFQEALCQAAKHEGPLHKCDISNSTEAGQKLFNMLRLGKSEPWTLALENVVGAKNMNVRPLLNYFEPLFTWLKDQNKNSFVGWSTDWSPYADQSIKVRISLKSALGDKAYEWNDNEMYLFRSSVAYAMRQYFLKVKNQMILFGEEDVRVANLKPRISFNFFVTAPKNVSDITPRTEVEKAIRMSRSRINDCFRLNDNSLEFLGIQPTLGPPNQPPVECPPCPAPPVAGPSVFLFPPKPKDTLMISRTPEVTCVVVDVSHEDPEVQFNWYVDGVEVHNAKTKPREEQFNSTFRVVSVLTVVHQDWLNGKEYKCKVSNKGLPAPIEKTISKTKGQPREPQVYTLPPSREEMTKNQVSLTCLVKGFYPSDISVEWESNGQPENNYKTTPPMLDSDGSFFLYSKLTVDKSRWQQGNVFSCSVLHEALHSHYTQKSLSLSPGK
B2: COVIC-167 (antibody, V domains shown)
VH: EVQLVESGGGLIQPGGSLRLSCAASGLTVSSNYMSWVRQAPGKGLEWVSIIYSGGSTYYADSVKGRFTISRDNSKNTLYLQMNSLRAEDTAVYYCARLGGYYYYGMDVWGQGTTVTVSS
VL: DIQMTQSPSSLSASVGERVTITCQASQDIRNYLNWYQKKPGKAPKLLIYDSSNLETGVPSRFSGGGSGTDFTFTISSLQPEDIATYYCQQYDNLPITFGQGTRLEIKR
B3: COVIC-142 (antibody, V domains shown)
VH: EVQLVESGGGLIQPGGSLRLSCAASGFTVSSNYMSWVRQAPGKGLEWVSVIYSGGSTYYADSVKGRFTISRDNSKNTLYLQMNSLRAEDTAVYYCARHITMVRGVIIYLKEWGQGTLVTVSS
VL: DIVMTQSPSSLSASVGDRVTITCQASQDISNYLNWYQQKPGKAPKLLIYDASNLETGVPSRFSGSGSGTDFTFTISSLQPEDIATYYCQQCDNLPITFGQGTRLEIK
B4: COVIC-64 (antibody)
chain: QVQLQESGGGLVQAGGSLRLSCAASGRTFSEYAMGWFRQAPGKEREFVATISWSGGSTYYTDSVKGRFTISRDNAKNTVYLQMNSLKPDDTAVYYCAAAGLGTVVSEWDYDYDYWGQGTQVTVSSGGSGGSQVQLQESGGGLVQAGGSLRLSCVASGSIFSINAMDWYRQAPGKQRELVAGITSGGSTNYGDFVKGRFTISRDNAKNTVYLQMDSLKPEDTAVYYCAAEVGGWGPPRPDYWGHGTQVTVSSGGGGSGGGGSKKKPLDGEYFTLQIRGRERFEMFRELNEALELKDAQAGKEPG
B5: COVIC-129 (antibody)
chain 1: QVQLQESGGGLVQAGGSLRLSCAASGRTFSEYAMGWFRQAPGKEREFVATISWSGGSTYYTDSVKGRFTISRDNAKNTVYLQMNSLKPDDTAVYYCAAAGLGTVVSEWDYDYDYWGQGTQVTVSSGGSGGSQVQLQESGGGLVQAGGSLRLSCAASGRTFSEYAMGWFRQAPGKEREFVATISWSGGSTYYTDSVKGRFTISRDNAKNTVYLQMNSLKPDDTAVYYCAAAGLGTVVSEWDYDYDYWGQGTQVTVSSGGGGSGGGGSASTKGPSVFPLAPSSKSTSGGTAALGCLVKDYFPEPVTVSWNSGALTSGVHTFPAVLQSSGLYSLSSVVTVPSSSLGTQTYICNVNHKPSNTKVDKKVEPKSCDKTHTCPPCPAPELLGGKKKPLDGEYFTLQIRGRERFEMFRELNEALELKDAQAGKEPG
chain 2: QVQLQESGGGLVQAGGSLRLSCAASGRTFSEYAMGWFRQAPGKEREFVATISWSGGSTYYTDSVKGRFTISRDNAKNTVYLQMNSLKPDDTAVYYCAAAGLGTVVSEWDYDYDYWGQGTQVTVSSGGSGGSQVQLQESGGGLVQAGGSLRLSCAASGRTFSEYAMGWFRQAPGKEREFVATISWSGGSTYYTDSVKGRFTISRDNAKNTVYLQMNSLKPDDTAVYYCAAAGLGTVVSEWDYDYDYWGQGTQVTVSSGGGGSGGGGSKRTVAAPSVFIFPPSDEQLKSGTASVVCLLNNFYPREAKVQWKVDNALQSGNSQESVTEQDSKDSTYSLSSTLTLSKADYEKHKVYACEVTHQGLSSPVTKSFNRGEC
B6: COVIC-131 (antibody, V domains shown)
VH: EVQLVESGGGVVQPGRSLRLSCAASAFTFSSYDMHWVRQAPGKGLEWVAVISYDGSNKYYADSVKGRFTISRDNSKNTLYLQMNSLRAEDTAVYYCAKDGGKLWVYYFDYWGQGTTVTVSS
VL: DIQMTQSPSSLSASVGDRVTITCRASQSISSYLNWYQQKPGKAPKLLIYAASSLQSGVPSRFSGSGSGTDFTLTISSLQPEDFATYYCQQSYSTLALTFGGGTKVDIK
B7: COVIC-367 (antibody, V domains shown)
VH: EVQLVESGGGLVQPGRSLRLSCAASGFTFDDYAMHWVRQAPGKGLEWVSGVSWNSGTIGYADSVKGRFIISRDNAKNSLYLQMRSLRAEDTALYYCAKDVSVYRFREQSYGMDVWGQGTTVTVLS
VL: QSALTQSASVSGSPGQSITISCTGTSSDIGGYNFVSWYQQHPGKAPKLMIYEVTTRPSGVSNRFSGSKSGNTASLTISGLQAEDEADYYCSSYTSSSLVVFGGGTKLALLG
B8: COVIC-309 (antibody, V domains shown)
VH: EVQLVESGGGLVQPGRSLRLSCAASGFTFDDYAMHWVRQAPGKGLEWVSGISWNSGSIGYADSVKGRFTISRDNAKNSLHLQMNSLRAEDTALYYCANLLTPPRRYSGYDLREDYFEYWGQGTLVTVSS
VL: SSELTQDPAVSVALGQTVRITCQGDSLRSYYASWYQQKPGQAPVLVIYDRNNRPSGIPDRFSGSSSGNTASLTITGAQAEDEADYYCHSRDSSGNPLHVVFGGGTKLTVL
B9: COVIC-149 (antibody, V domains shown)
VH: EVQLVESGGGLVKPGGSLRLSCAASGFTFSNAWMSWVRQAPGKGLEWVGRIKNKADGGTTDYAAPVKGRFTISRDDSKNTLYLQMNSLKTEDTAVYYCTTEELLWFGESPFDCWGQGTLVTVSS
VL: DIQLTQSPSFLSASVGDRVTITCWASQGINSYLAWYQQKPGKAPKLLIYAASTLQSGVPSRFSGSGSGTEFTLTISSLQPEDFTTYYCQQFNDYPRTFGPGTKVEIKR
B10: COVIC-160 (antibody, V domains shown)
VH: EVQLVESGGGLIQPGGSLRLSCAASGVTVSSNYMSWVRQAPGKGLEWVSVIYSGGSTFYADSVKGRFTISRDNSKNTLYLQMNSLRAEDTAVYYCARDLSYYGMDVWGQGTTVTVSS
VL: DIQLTQSPSFLSASVGDRVTITCWASQGISSYLAWYQQKPGKAPKLLIYAASTLQSGVPSKFSGSGSGTEFTLTISSLQPEDFATYYCQQLNSYPCSFGQGTKLEIKR
B11: COVIC-306 (antibody, V domains shown)
VH: QVQLVESGGGLVKPGGSLRLSCAASGFTVGSNYMSWVRQAPGKGLEWVSVIYSGGSTYYADSVKGRFTISRDNSKNTLYLQMNSLRAEDTAVYYCARGSSGAWYFDLWGRGTLVTVSS
VL: EIVMTQSPSSLSASVGDSVTITCQASQDISNYLNWYQQKPGKAPKLLIYDASNLETGVPSRFSGGGSGTDFTLTITSLQPEDIATYYCQQYDNFPPTFGPGTKVDIKR

Target: SARS-CoV-2 spike RBD (Wuhan-Hu-1) (Severe acute respiratory syndrome …, UniProt P0DTC2)
Experiment: SPR

Which Kd does the source give for B1 here?
Its Kd is 0.431 nM.

B2 was tested. Which Kd did it give?
The Kd was 1.87 nM.

Which Kd does the source give for B3 here?
Its Kd is 16.5 nM.

How did the Kd turn out when B4 was run?
Its Kd is 169 nM.

With B5 as the binder, how does the Kd read?
Its Kd is 135 nM.

How did the Kd turn out when B6 was run?
The Kd was 2.05 nM.

With B7 as the binder, how does the Kd read?
Its Kd is 0.0301 nM.

B8 was tested. Which Kd did it give?
Its Kd is 104 nM.

With B9 as the binder, how does the Kd read?
The Kd was 22.3 nM.

With B10 as the binder, how does the Kd read?
The Kd was 14.7 nM.

B11 was tested. Which Kd did it give?
The Kd was 26.3 nM.
